In paper PMC3020921 (Molecular Biology of the Cell, 2011):

Key:
[1] = target: Flag-tagged Nemo-like kinase (NLK), wild type; assay: SEC
SEC = target: the molecule itself; assay: SEC

Flag-tagged Nemo-like kinase (NLK), wild type (enzyme)
stoichiometry N [1]: 2

B1: endogenous NLK protein of PC12 cells (enzyme, rat (endogenous in PC12), UniProt D3ZSZ3 1-527, looked up)
chain: MSLCGTRANAKMMAAYNGGTSAAAAGHHHHHHHHLPHLPPPHLHHHHHPQHHLHPGSAAAVHPVQQHTSSAAAAAAAAAAAAAMLNPGQQQPYFPSPAPGQAPGPAAAAPAQVQAAAAATVKAHHHQHSHHPQQQLDIEPDRPIGYGAFGVVWSVTDPRDGKRVALKKMPNVFQNLVSCKRVFRELKMLCFFKHDNVLSALDILQPPHIDYFEEIYVVTELMQSDLHKIIVSPQPLSSDHVKVFLYQILRGLKYLHSAGILHRDIKPGNLLVNSNCVLKICDFGLARVEELDESRHMTQEVVTQYYRAPEILMGSRHYSNAIDIWSVGCIFAELLGRRILFQAQSPIQQLDLITDLLGTPSLEAMRTACEGAKAHILRGPHKQPSLPVLYTLSSQATHEAVHLLCRMLVFDPSKRISAKDALAHPYLDEGRLRYHTCMCKCCFSTSTGRVYTSDFEPVTNPKFDDTFEKNLSSVRQVKEIIHQFILEQQKGNRVPLCINPQSAAFKSFISSTVAQPSEMPPSPLVWE
stoichiometry N (SEC): 2
